Experimental data taken from the supplement of paper PMC7877785.
± gives the uncertainty stated by the source.

Experiment: self-splicing fitness, log relative to wild type (ln ratio); higher = more splicing; Tetrahymena group I intron in knt gene, E. coli kanamycin selection, DiMSum; sequences stand for … in CUCUCU…GGAGGGAAAAGUUAUCAGGCAUGCACCUGGUAGCUAGUCUUUAAACCAAUAGAUUGCAUCGGUUUAAAAGGCAAGACCGUCAAAUUGCGGGAAAGGGGUCAACAGCCGUUCAGUACCAAGUCUCAGGGGAAACUUUGAGAUGGCCUUGCAAAGGGUAUGGUAAUAAGCUGACGGACAUGGUCCUAACCACGCAGCCAAGUCCUAAGUCAACAGAUCUUCUGUUGAUAUGGAUGCAGUUCACAGACUAAAUGUCGGUCGGGGAAGAUGUAUUCUUCUCAUAAGAUAUAGUCGGACCUCUCCUUAAUGGGAGCUAGCGGAUGAAGUGAUGCAACACUGGAGCCGCUGGGAACUAAUUUGUAUGCGAAAGUAUAUUGAUUAGUUUUGGAGUACUCGUGGUCG
Summary of the method: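 DiMSum derived fitness as the error-weighted combination of fold changes across replicates, kanamycin versus no kanamycin, normalised to wild type. E. coli BL21(DE3) held the library, which randomised all eight P1ex-region intron nucleotides within the knt kanamycin-resistance gene on pET-22b(+). Six replicate transformations grew overnight at 37°C or 30°C on LB agar with or without 25 μg/mL kanamycin, also containing 100 μg/mL carbenicillin, 50 μM IPTG and 0.2% rhamnose, and pooled colonies were amplicon-sequenced on an Illumina HiSeq 2500.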

Sequence | self-splicing fitness (ln) (30 °C) | self-splicing fitness (ln) (37 °C)
AGUUAGCAAUAUUACGCCCC | -0.473 ± 0.23 | 
GUGUAGCAAUAUUACGGACU | -0.979 ± 0.1 | -0.103 ± 0.12
CGGUAGCAAUAUUACGUCAU | -3.21 ± 0.14 | -2.56 ± 0.15
UUAGAGCAAUAUUACGAACG | -0.913 ± 0.22 | -0.303 ± 0.19
GCGCAGCAAUAUUACGGUGU | -2.83 ± 0.14 | -2.47 ± 0.17
AGACAGCAAUAUUACGCCGU | -3.43 ± 0.21 | -2.91 ± 0.29
UCGCAGCAAUAUUACGAGUU | -4.47 ± 0.28 | -1.95 ± 0.23
ACUGAGCAAUAUUACGGGAA | -2.94 ± 0.17 | -2.48 ± 0.24
ACCGAGCAAUAUUACGAAAG | -3.42 ± 0.37 | -1.68 ± 0.17
UCACAGCAAUAUUACGUCAU | -3.09 ± 0.17 | -1.43 ± 0.12
ACGAAGCAAUAUUACGGGAA | -3.09 ± 0.19 | -1.31 ± 0.13
GACUAGCAAUAUUACGGUGG | -1.91 ± 0.072 | -1.27 ± 0.082
AACUAGCAAUAUUACGUACU | -0.0487 ± 0.053 | 0.151 ± 0.073
CUAUAGCAAUAUUACGUAUC | -5.21 ± 0.32 | -2.48 ± 0.14
UUAGAGCAAUAUUACGCGGA | -1.29 ± 0.1 | -0.00507 ± 0.11
CGUUAGCAAUAUUACGAAGU | -2.41 ± 0.34 | -1.29 ± 0.3
UGACAGCAAUAUUACGGAUA | -1.25 ± 0.095 | -0.669 ± 0.11
UGUAAGCAAUAUUACGUGAA | -1.8 ± 0.16 | 0.0061 ± 0.14
UCGCAGCAAUAUUACGGGGC | -2.52 ± 0.23 | -2.63 ± 0.27
UGCCAGCAAUAUUACGUCAA | -1.93 ± 0.11 | -1.08 ± 0.093
UACUAGCAAUAUUACGUGAG | -3.38 ± 0.13 | -2.56 ± 0.23
GCGCAGCAAUAUUACGCAGA | -3.32 ± 0.22 | -2.5 ± 0.24
CACUAGCAAUAUUACGCUAU | -3.92 ± 0.3 | -2.38 ± 0.23
CUGUAGCAAUAUUACGUAGA | -2.66 ± 0.12 | -2.51 ± 0.16

Sequence | self-splicing fitness (ln) (30 °C) | self-splicing fitness (ln) (37 °C)
CGUCAGCAAUAUUACGACCA | -0.734 ± 0.11 | -0.297 ± 0.13
CUGUAGCAAUAUUACGCUAG | -3.71 ± 0.21 | -2.36 ± 0.23
UUGCAGCAAUAUUACGCUAC | -0.542 ± 0.29 | 
UGCUAGCAAUAUUACGUCCA | -0.211 ± 0.06 | -0.404 ± 0.09
GAAUAGCAAUAUUACGCUCA | -0.0838 ± 0.16 | 0.784 ± 0.18
ACAGAGCAAUAUUACGCUCA | -1.29 ± 0.2 | -1.26 ± 0.18
AUUAAGCAAUAUUACGUAUA | -1.48 ± 0.16 | -1.35 ± 0.14
UUCUAGCAAUAUUACGUGAC | -3.69 ± 0.31 | -1.61 ± 0.24
GGUUAGCAAUAUUACGAGUG | -2.59 ± 0.35 | -1.39 ± 0.19
ACUUAGCAAUAUUACGCCCG | -1.55 ± 0.17 | 0.138 ± 0.28
UCAAAGCAAUAUUACGGUGU | -2.8 ± 0.11 | -1.31 ± 0.099
ACUUAGCAAUAUUACGCGAU | -3.66 ± 0.36 | -1.13 ± 0.17
CAUGAGCAAUAUUACGCACG | -0.622 ± 0.097 | -0.67 ± 0.11
GCGCAGCAAUAUUACGGUAG | -3.4 ± 0.15 | -1.88 ± 0.14
ACUAAGCAAUAUUACGGAUC | -2.21 ± 0.13 | -1.3 ± 0.14
AGCUAGCAAUAUUACGCCAU | -1.92 ± 0.31 | -1.91 ± 0.43
UGCUAGCAAUAUUACGUUAU | -2.22 ± 0.16 | -2.33 ± 0.23
CAAUAGCAAUAUUACGCUUA | -2.06 ± 0.1 | -1.74 ± 0.11
GGGCAGCAAUAUUACGUCGA | -0.0821 ± 0.07 | 0.711 ± 0.1
UGUAAGCAAUAUUACGAUAU | -3.01 ± 0.3 | -0.86 ± 0.24
GACGAGCAAUAUUACGUUUA | -2.06 ± 0.14 | -0.752 ± 0.12
CUGCAGCAAUAUUACGCGGU | -2.5 ± 0.15 | -2.89 ± 0.23
GUAAAGCAAUAUUACGAGGU | -3.07 ± 0.13 | -1.83 ± 0.24
AAAUAGCAAUAUUACGGCCG | -0.799 ± 0.23 | 0.0219 ± 0.35
